Results on one substance are retold here after patent US20240254458A1.

This test concerns the target LexA408-DBD-iLight V464L-msfGFP (E. coli; Idiomarina sp.). Description: cell-based or functional assay.

Substance LexA408-DBD-iLight V464L-msfGFP displayed an inhibition efficiency of the gene expression (mCherry reporter, E. coli, 660 nm) of 1.6 fold.
